Target: T1, TNFR1 (Homo sapiens, UniProt P19438)
T1 chain: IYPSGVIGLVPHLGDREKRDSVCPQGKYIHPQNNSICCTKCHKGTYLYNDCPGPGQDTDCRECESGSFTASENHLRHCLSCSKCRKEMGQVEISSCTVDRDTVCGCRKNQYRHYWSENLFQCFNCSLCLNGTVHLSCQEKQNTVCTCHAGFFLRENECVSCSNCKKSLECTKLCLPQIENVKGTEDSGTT
Test: yeast display SC50

B1: R21C (designed binder)
chain: MTLQELLREEALRRAEAEAFCYALELLAEKFPEQKEYLLDLAEEIESQIRSLSGVDVEDVRKFLDKEWAWVKELLAEHPAELAEVEAARAARLAELRAEVEAKVAA
With B1 the “apparent Kd (screen)” value was 0.718 nM.

B2: L74M (designed binder)
chain: MTLQELLREEALRRAEAEAFRYALELLAEKFPEQKEYLLDLAEEIESQIRSLSGVDVEDVRKFLDKEWAWVKEMLAEHPAELAEVEAARAARLAELRAEVEAKVAA
For B2, the “apparent Kd (screen)” value was 0.956 nM.

B3: E58R (designed binder)
chain: MTLQELLREEALRRAEAEAFRYALELLAEKFPEQKEYLLDLAEEIESQIRSLSGVDVRDVRKFLDKEWAWVKELLAEHPAELAEVEAARAARLAELRAEVEAKVAA
For B3, the “apparent Kd (screen)” value was 0.869 nM.

B4: L64T (designed binder)
chain: MTLQELLREEALRRAEAEAFRYALELLAEKFPEQKEYLLDLAEEIESQIRSLSGVDVEDVRKFTDKEWAWVKELLAEHPAELAEVEAARAARLAELRAEVEAKVAA
B4 was tested, and the “apparent Kd (screen)” value was 12.5 nM.

B5: L64F (designed binder)
chain: MTLQELLREEALRRAEAEAFRYALELLAEKFPEQKEYLLDLAEEIESQIRSLSGVDVEDVRKFFDKEWAWVKELLAEHPAELAEVEAARAARLAELRAEVEAKVAA
For B5, the “apparent Kd (screen)” value was 0.869 nM.

B6: A98L (designed binder)
chain: MTLQELLREEALRRAEAEAFRYALELLAEKFPEQKEYLLDLAEEIESQIRSLSGVDVEDVRKFLDKEWAWVKELLAEHPAELAEVEAARAARLAELRLEVEAKVAA
In the case of B6, the “apparent Kd (screen)” value is reported as 0.539 nM.

B7: Q34L (designed binder)
chain: MTLQELLREEALRRAEAEAFRYALELLAEKFPELKEYLLDLAEEIESQIRSLSGVDVEDVRKFLDKEWAWVKELLAEHPAELAEVEAARAARLAELRAEVEAKVAA
With B7 the “apparent Kd (screen)” value was 0.539 nM.

B8: A28E (designed binder)
chain: MTLQELLREEALRRAEAEAFRYALELLEEKFPEQKEYLLDLAEEIESQIRSLSGVDVEDVRKFLDKEWAWVKELLAEHPAELAEVEAARAARLAELRAEVEAKVAA
B8 was tested, and the “apparent Kd (screen)” value was 5.84 nM.

B9: F20Y (designed binder)
chain: MTLQELLREEALRRAEAEAYRYALELLAEKFPEQKEYLLDLAEEIESQIRSLSGVDVEDVRKFLDKEWAWVKELLAEHPAELAEVEAARAARLAELRAEVEAKVAA
In the case of B9, the “apparent Kd (screen)” value is reported as 2.05 nM.

B10: V85Q (designed binder)
chain: MTLQELLREEALRRAEAEAFRYALELLAEKFPEQKEYLLDLAEEIESQIRSLSGVDVEDVRKFLDKEWAWVKELLAEHPAELAEQEAARAARLAELRAEVEAKVAA
B10 was tested, and the “apparent Kd (screen)” value was 0.869 nM.

B11: Q48K (designed binder)
chain: MTLQELLREEALRRAEAEAFRYALELLAEKFPEQKEYLLDLAEEIESKIRSLSGVDVEDVRKFLDKEWAWVKELLAEHPAELAEVEAARAARLAELRAEVEAKVAA
With B11 the “apparent Kd (screen)” value was 7.07 nM.

B12: L39C (designed binder)
chain: MTLQELLREEALRRAEAEAFRYALELLAEKFPEQKEYLCDLAEEIESQIRSLSGVDVEDVRKFLDKEWAWVKELLAEHPAELAEVEAARAARLAELRAEVEAKVAA
With B12 the “apparent Kd (screen)” value was 1.16 nM.

B13: V85Y (designed binder)
chain: MTLQELLREEALRRAEAEAFRYALELLAEKFPEQKEYLLDLAEEIESQIRSLSGVDVEDVRKFLDKEWAWVKELLAEHPAELAEYEAARAARLAELRAEVEAKVAA
With B13 the “apparent Kd (screen)” value was 0.869 nM.

B14: W68S (designed binder)
chain: MTLQELLREEALRRAEAEAFRYALELLAEKFPEQKEYLLDLAEEIESQIRSLSGVDVEDVRKFLDKESAWVKELLAEHPAELAEVEAARAARLAELRAEVEAKVAA
B14 was tested, and the “apparent Kd (screen)” value was 2.48 nM.

B15: E46S (designed binder)
chain: MTLQELLREEALRRAEAEAFRYALELLAEKFPEQKEYLLDLAEEISSQIRSLSGVDVEDVRKFLDKEWAWVKELLAEHPAELAEVEAARAARLAELRAEVEAKVAA
With B15 the “apparent Kd (screen)” value was 0.49 nM.

B16: A105N (designed binder)
chain: MTLQELLREEALRRAEAEAFRYALELLAEKFPEQKEYLLDLAEEIESQIRSLSGVDVEDVRKFLDKEWAWVKELLAEHPAELAEVEAARAARLAELRAEVEAKVNA
For B16, the “apparent Kd (screen)” value was 0.593 nM.

B17: A23R (designed binder)
chain: MTLQELLREEALRRAEAEAFRYRLELLAEKFPEQKEYLLDLAEEIESQIRSLSGVDVEDVRKFLDKEWAWVKELLAEHPAELAEVEAARAARLAELRAEVEAKVAA
For B17, the “apparent Kd (screen)” value was 0.539 nM.

B18: E99W (designed binder)
chain: MTLQELLREEALRRAEAEAFRYALELLAEKFPEQKEYLLDLAEEIESQIRSLSGVDVEDVRKFLDKEWAWVKELLAEHPAELAEVEAARAARLAELRAWVEAKVAA
In the case of B18, the “apparent Kd (screen)” value is reported as 0.593 nM.

B19: R92D (designed binder)
chain: MTLQELLREEALRRAEAEAFRYALELLAEKFPEQKEYLLDLAEEIESQIRSLSGVDVEDVRKFLDKEWAWVKELLAEHPAELAEVEAARAADLAELRAEVEAKVAA
For B19, the “apparent Kd (screen)” value was 0.718 nM.

B20: G54R (designed binder)
chain: MTLQELLREEALRRAEAEAFRYALELLAEKFPEQKEYLLDLAEEIESQIRSLSRVDVEDVRKFLDKEWAWVKELLAEHPAELAEVEAARAARLAELRAEVEAKVAA
With B20 the “apparent Kd (screen)” value was 3.3 nM.

B21: D40Q (designed binder)
chain: MTLQELLREEALRRAEAEAFRYALELLAEKFPEQKEYLLQLAEEIESQIRSLSGVDVEDVRKFLDKEWAWVKELLAEHPAELAEVEAARAARLAELRAEVEAKVAA
In the case of B21, the “apparent Kd (screen)” value is reported as 0.446 nM.

B22: K30W (designed binder)
chain: MTLQELLREEALRRAEAEAFRYALELLAEWFPEQKEYLLDLAEEIESQIRSLSGVDVEDVRKFLDKEWAWVKELLAEHPAELAEVEAARAARLAELRAEVEAKVAA
In the case of B22, the “apparent Kd (screen)” value is reported as 0.653 nM.

B23: R92Y (designed binder)
chain: MTLQELLREEALRRAEAEAFRYALELLAEKFPEQKEYLLDLAEEIESQIRSLSGVDVEDVRKFLDKEWAWVKELLAEHPAELAEVEAARAAYLAELRAEVEAKVAA
With B23 the “apparent Kd (screen)” value was 0.49 nM.

B24: K62P (designed binder)
chain: MTLQELLREEALRRAEAEAFRYALELLAEKFPEQKEYLLDLAEEIESQIRSLSGVDVEDVRPFLDKEWAWVKELLAEHPAELAEVEAARAARLAELRAEVEAKVAA
In the case of B24, the “apparent Kd (screen)” value is reported as 3 nM.

B25: L38Q (designed binder)
chain: MTLQELLREEALRRAEAEAFRYALELLAEKFPEQKEYQLDLAEEIESQIRSLSGVDVEDVRKFLDKEWAWVKELLAEHPAELAEVEAARAARLAELRAEVEAKVAA
In the case of B25, the “apparent Kd (screen)” value is reported as 16.7 nM.

B26: E5W (designed binder)
chain: MTLQWLLREEALRRAEAEAFRYALELLAEKFPEQKEYLLDLAEEIESQIRSLSGVDVEDVRKFLDKEWAWVKELLAEHPAELAEVEAARAARLAELRAEVEAKVAA
For B26, the “apparent Kd (screen)” value was 0.539 nM.

B27: L7A (designed binder)
chain: MTLQELAREEALRRAEAEAFRYALELLAEKFPEQKEYLLDLAEEIESQIRSLSGVDVEDVRKFLDKEWAWVKELLAEHPAELAEVEAARAARLAELRAEVEAKVAA
B27 was tested, and the “apparent Kd (screen)” value was 11.4 nM.

B28: E9R (designed binder)
chain: MTLQELLRREALRRAEAEAFRYALELLAEKFPEQKEYLLDLAEEIESQIRSLSGVDVEDVRKFLDKEWAWVKELLAEHPAELAEVEAARAARLAELRAEVEAKVAA
With B28 the “apparent Kd (screen)” value was 1.4 nM.

B29: P32N (designed binder)
chain: MTLQELLREEALRRAEAEAFRYALELLAEKFNEQKEYLLDLAEEIESQIRSLSGVDVEDVRKFLDKEWAWVKELLAEHPAELAEVEAARAARLAELRAEVEAKVAA
For B29, the “apparent Kd (screen)” value was 0.653 nM.

B30: K72D (designed binder)
chain: MTLQELLREEALRRAEAEAFRYALELLAEKFPEQKEYLLDLAEEIESQIRSLSGVDVEDVRKFLDKEWAWVDELLAEHPAELAEVEAARAARLAELRAEVEAKVAA
B30 was tested, and the “apparent Kd (screen)” value was 1.05 nM.

B31: A88D (designed binder)
chain: MTLQELLREEALRRAEAEAFRYALELLAEKFPEQKEYLLDLAEEIESQIRSLSGVDVEDVRKFLDKEWAWVKELLAEHPAELAEVEADRAARLAELRAEVEAKVAA
In the case of B31, the “apparent Kd (screen)” value is reported as 0.593 nM.

B32: V71T (designed binder)
chain: MTLQELLREEALRRAEAEAFRYALELLAEKFPEQKEYLLDLAEEIESQIRSLSGVDVEDVRKFLDKEWAWTKELLAEHPAELAEVEAARAARLAELRAEVEAKVAA
For B32, the “apparent Kd (screen)” value was 1.27 nM.

B33: E84P (designed binder)
chain: MTLQELLREEALRRAEAEAFRYALELLAEKFPEQKEYLLDLAEEIESQIRSLSGVDVEDVRKFLDKEWAWVKELLAEHPAELAPVEAARAARLAELRAEVEAKVAA
B33 was tested, and the “apparent Kd (screen)” value was 0.49 nM.

B34: L24A (designed binder)
chain: MTLQELLREEALRRAEAEAFRYAAELLAEKFPEQKEYLLDLAEEIESQIRSLSGVDVEDVRKFLDKEWAWVKELLAEHPAELAEVEAARAARLAELRAEVEAKVAA
In the case of B34, the “apparent Kd (screen)” value is reported as 1.54 nM.

Source: article PMC12416549 (2024)
